Experimental data from patent EP4628506A1, “PREPARATION METHOD FOR AND USE OF CD70-SPECIFIC INTEGRATED DIAGNOSIS AND TREATMENT MOLECULAR IMAGING PROBE” (Renji Hospital, Shanghai Jiao Tong University School of …, priority 2022, dated 2024).
Each block holds one molecule with its values, some of them ahead of it.

Tests used:
[1] = molecular target: T1, extracellular domain of human recombinant CD70 (human, UniProt P32970 39-193); experiment: SPR (Biacore), CD70 extracellular domain immobilised, nanobody as mobile phase
T1 construct: extracellular domain; Immobilised on Biacore chips; also called human CD70; CD27 ligand
T1 sequence (looked up): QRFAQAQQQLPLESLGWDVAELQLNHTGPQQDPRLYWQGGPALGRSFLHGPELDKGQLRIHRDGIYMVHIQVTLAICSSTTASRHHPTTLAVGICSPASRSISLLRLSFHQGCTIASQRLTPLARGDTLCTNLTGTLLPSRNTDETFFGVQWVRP

[2] = molecular target: T1, extracellular domain of human …; experiment: SPR (Biacore), CD70 extracellular domain immobilised, fusion protein as mobile phase
[3] = molecular target: T2, recombinant human serum albumin (human, UniProt P02768 25-609); experiment: SPR (Biacore), recombinant human serum albumin immobilised, fusion protein as mobile phase
T2 construct: Immobilised on Biacore chips
T2 sequence (P02768 25-609 limits assumed): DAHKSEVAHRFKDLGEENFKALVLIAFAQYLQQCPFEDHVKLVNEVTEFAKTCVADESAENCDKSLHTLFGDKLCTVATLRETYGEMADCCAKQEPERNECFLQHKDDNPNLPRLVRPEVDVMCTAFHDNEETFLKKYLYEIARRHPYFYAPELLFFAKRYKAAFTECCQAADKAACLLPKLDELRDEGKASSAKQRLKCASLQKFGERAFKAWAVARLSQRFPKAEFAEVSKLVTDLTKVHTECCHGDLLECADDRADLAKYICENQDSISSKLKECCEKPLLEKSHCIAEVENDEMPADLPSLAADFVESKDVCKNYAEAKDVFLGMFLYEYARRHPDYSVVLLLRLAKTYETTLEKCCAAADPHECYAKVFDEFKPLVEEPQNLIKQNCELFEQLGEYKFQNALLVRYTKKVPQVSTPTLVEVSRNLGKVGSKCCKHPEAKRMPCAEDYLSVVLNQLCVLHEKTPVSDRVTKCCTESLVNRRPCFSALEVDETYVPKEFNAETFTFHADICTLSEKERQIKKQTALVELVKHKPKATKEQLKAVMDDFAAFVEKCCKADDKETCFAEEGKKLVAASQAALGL

[4] = molecular target: T3, recombinant murine serum albumin (murine, UniProt P07724 25-608); experiment: SPR (Biacore), recombinant murine serum albumin immobilised, fusion protein as mobile phase
T3 construct: Immobilised on Biacore chips

RCC models (No. 62 PDX) = tested on: RCC models (No. 62 PDX); design: species or system mice; conditions: mouse, in vivo
From the text: Renal cell carcinoma (RCC) patient-derived xenograft (PDX) models, No. 62 PDX, positive in expression of CD70 were identified by immunohistochemical (IHC) staining using an antihuman CD70 monoclonal antibody (E3Q1A, 69209, Cell Signaling Technology) as a primary antibody, as shown in FIG. 3. RCC PDX models were established by subcutaneously inoculating 2mm×2mm×2mm No. 62 PDX tissue chunks into right shoulder of NCG (NOD-Prkdcem26Cd52Il2rgem26Cd22/Nju) mice.
PET/CT images of small animals involved in these tests were all captured using an IRIS small-animal PET/CT scanner (Inviscan Imaging Systems). Each murine model (three in each group) was injected with 3.7-7.4 MBq of [^68Ga]Ga-NOTA-B3 or [^68Ga]Ga-NOTA-B6 via the tail vein. One hour after the injection, the mice were anesthetized with isoflurane mixed in oxygen (at a concentration of 2%). After being deeply anesthetized, the mice were placed supine on the PET/CT scanning bed, and PET and CT images were captured sequentially. […]
The same operations as in step 2) above were performed. […] ROI uptake in the tumor and major tissues and organs (heart, liver, lungs, kidneys, muscles, spleen and bones) was analyzed and plotted against time. […]

B3: [^68Ga]Ga-NOTA-B6: human CD70-specific 68Ga-labeled monovalent nanobody probe, B6 modified with p-SCN-Bn-NOTA (conjugate)
VHH: QVQLQESGGGSVQAGGSLRLSCVASDLIVNDGCMAWFRQVPGKEHEGVARIAIPTTPGSTLYADSVKGRFTISRDGAKNTLYLQMNSLKPEDTAVYYCAADQWASRGCTAIATIPAEFDYWGQGTQVTVSSGGGGSGGGGSLLQSHHHHHH
- uptake in the major excretory (kidneys) and metabolic (liver) organs (RCC models (No. 62 PDX)): high nonspecific uptake

B4: CD70-specific nanobody B6 (VHH)
VHH: QVQLQESGGGSVQAGGSLRLSCVASDLIVNDGCMAWFRQVPGKEHEGVARIAIPTTPGSTLYADSVKGRFTISRDGAKNTLYLQMNSLKPEDTAVYYCAADQWASRGCTAIATIPAEFDYWGQGTQVTVSS
notes: Monovalent nanobody expressed in E. coli from pET-30a(+); any vector-derived tag is not described
- Kd [1]: 3.73 nM

B5: CD70-specific nanobody fusion protein ABDB6 (other)
chain: HHHHHHQVQLQESGGGSVQAGGSLRLSCVASDLIVNDGCMAWFRQVPGKEHEGVARIAIPTTPGSTLYADSVKGRFTISRDGAKNTLYLQMNSLKPEDTAVYYCAADQWASRGCTAIATIPAEFDYWGQGTQVTVSSGGGGSGGGGSGGGGSLAEAKVLANRELDKYGVSDFYKRLINKAKTVEGVEALKLHILAALPGGGGSLLQS
notes: 7
- Kd [2]: 0.135 nM
- Kd [3]: 0.0885 nM
- Kd [4]: 0.454 nM

Next, values leading:

- Kd [1]: 5.69 nM
B1: CD70-specific nanobody B3 (VHH)
VHH: QVQLQESGGGSVQAGGSLRLSCAASGIIVNDGCMAWFRQVPGKEREGVAGIVIGEYGGGTTYYADSVKGRFTISRDRAKNTLYLQMNSLKPEDTAMYYCAADQWASGGCTSIATFSDEFDYWGQGTQVTVSS
notes: as for B4

- Kd [2]: 0.11 nM
- Kd [3]: 0.0742 nM
- Kd [4]: 0.38 nM
B2: CD70-specific nanobody fusion protein ABDB3 (other)
chain: HHHHHHQVQLQESGGGSVQAGGSLRLSCAASGIIVNDGCMAWFRQVPGKEREGVAGIVIGEYGGGTTYYADSVKGRFTISRDRAKNTLYLQMNSLKPEDTAMYYCAADQWASGGCTSIATFSDEFDYWGQGTQVTVSSGGGGSGGGGSGGGGSLAEAKVLANRELDKYGVSDFYKRLINKAKTVEGVEALKLHILAALPGGGGSLLQS
notes: 5
